Numbered stars: 1 amine (or outer) side, 2 acyl side, 3 side chain; on linkers, the order of the positions; unused ones are H or OH. Square brackets hold non-standard residues; d marks the D form. Peptide text beside a SMILES is read from it. * marks the point of attachment. Exatecan = CC[C@@]1(O)C(=O)OCc2c1cc1n(c2=O)Cc2c-1nc1cc(F)c(C)c3c1c2[C@@H](N*)CC3; Dolaproine = CO[C@@H]([C@@H]1CCCN1)[C@@H](C)C(=O)O; Hexanoyl(6-maleimido) = O=C1C=CC(=O)N1CCCCCC(=O)*; Dil = CC[C@H](C)[C@H](NC)[C@@H](CC(=O)O)OC; PABC = O=C(OCc1ccc(N[*:1])cc1)[*:2]; X1 = C[N+](C)(CCCS(=O)(=O)[O-])CCN*; NHCH2OCH2CO = O=C(COCN[*:1])[*:2]; X2 = C[C@@H](N*)[C@@H](O)c1ccccc1; NMeV = CN[C@H](C(=O)O)C(C)C
Legend:
Cathepsin B enzyme = target: T1, Cathepsin B enzyme (Homo sapiens, UniProt P07858); assay: In vitro enzymatic release of free toxin molecules by Cathepsin B; format: biochemical
T1 construct: purchased Sino Biological 10483-H08H
Protocol: Preparation of activated buffer solution (10 mM L-cysteine (ACRO, cat #: 173600250), 15 mM EDTA, 0.1M His HCl, pH 5.5): […] of solid cysteine was weighed, adding 3 mL of 0.1M His HCl (pH 5.5) solution for dissolution, and then adding 90 μL of 0.5M EDTA solution to mix well.
[…] At each detection time point, 50 μL of enzyme digestion solution was taken, adding 2.5 μL of 10% TFA solution to terminate the reaction for enzyme digestion kinetics detection.
Negative control preparation: 30 μL of activated buffer was taken to stay in 37° C. water bath for 15 minutes, then adding 300 μL of 0.1M His HCl (pH 5.5) solution and 36 μL of 9D1-LD-38 (375 μg) to stay in 37° C. water bath overnight.

[1] = Hydrophobic interaction chromatography (HIC) analysis of the antibody-drug conjugates; format: physicochemical; conditions: main peak of the antibody-drug conjugate, Butyl-NPR column
Protocol: Size exclusion chromatography (SEC) analysis column is Tskgel G3000SWXL (TOSOH, 0008541); mobile phase is 0.1 M PB, pH7.0, 0.1M NaCl; isocratic elution, flow rate: 1 mL/min; column temperature: 25° C. Detection wavelength is 280 nm and 366 nm, respectively. Hydrophobic interaction chromatography (HIC) analysis column is Butyl-NPR 4.6×100 mm (TOSOH, 0042168); mobile phase A is 50 mM PB, pH7.0, 1.5 M (NH4)2SO4; mobile phase B is 50 mM PB, pH7.0, 20% acetonitrile. Separation gradient: changing from 0% B to 100% B in 2-20 min, column temperature: 30° C., flow rate: 0.6 mL/min. Detection wavelength is 280 nm and 366 nm, respectively. The results are shown in Table 1 and FIG. 1-FIG. 6 (FIG. 1 comprises FIG. 1A and FIG. 1B; FIG. 2 comprises FIG. 2A and FIG. 2B; FIG. 3 comprises FIG. 3A, FIG. 3B, FIG. 3C, FIG. 3D, FIG. 3E, FIG. 3F, FIG. 3G and FIG. 3H; FIG. 4 comprises FIG. 4A and FIG. 4B; FIG. 5 comprises FIG. 5A and FIG. 5B; and FIG. 6 comprises FIG. 6A, FIG. 6B, FIG. 6C, […], FIG. 6E, FIG. 6F, FIG. 6G and […]).

[2] = Size exclusion chromatography (SEC) analysis of the antibody-drug conjugates; format: physicochemical; conditions: SEC purity of the antibody-drug conjugate
Protocol: Size exclusion chromatography (SEC) analysis column is Tskgel G3000SWXL (TOSOH, 0008541); mobile phase is 0.1 M PB, pH7.0, 0.1M NaCl; isocratic elution, flow rate: 1 mL/min; column temperature: 25° C. Detection wavelength is 280 nm and 366 nm, respectively. Hydrophobic interaction chromatography (HIC) analysis column is Butyl-NPR 4.6×100 mm (TOSOH, 0042168); mobile phase A is 50 mM PB, pH7.0, 1.5 M (NH4)2SO4; mobile phase B is 50 mM PB, pH7.0, 20% acetonitrile. Separation gradient: changing from 0% B to 100% B in 2-20 min, column temperature: 30° C., flow rate: 0.6 mL/min. Detection wavelength is 280 nm and 366 nm, respectively.

MC38-hClaudin18.2 cells = assay: In vitro tumor cell killing activity, MC38-hClaudin18.2 cell line (AlamarBlue); format: cell-based, mouse; conditions: MC38-hClaudin18.2 cells, 48-72 hours, AlamarBlue; read-out: IC50 values
Protocol: 9D1 antibody-drug conjugates prepared in the previous Experimental Examples and Comparative Examples were used for performing in vitro killing test on MC38 cell lines stably expressing human Claudin18.2. MC38-hClaudin18.2 cells were inoculated into a 96-well cell culture plate at 3000 cells/well, adding gradient diluted 9D1 ADCs next day to culture for 48-72 hours. The fluorescence values of each experimental well were detected by AlamarBlue reagent (ThermoFisher, item number DAL1100), and the cell viability was calculated.
When the cell confluence was greater than 80%, the cells were passaged at a ratio of 1:10 to 1:20 every 3 days.
MC38-hClaudin18.2 cells were digested by a digestive solution of recombinant enzyme (TrypLE™ Express Enzyme). […] The cell density was adjusted to 3×10^4 cells/mL, inoculating into 96-well cell culture plate at 100 μL/well. The cells were cultured overnight at 37° C. in 5% C02 incubator. The next day, the test drug was diluted 10 times in a series with a total of 7-8 concentration points, simultaneously setting a blank control with a sample concentration of 0. The diluted sample was added to 96-well cell culture plate containing cells at 100 μL/well, then incubating at 37° C. in 5% CO2 incubator for 48-72 hours. 20 μL of AlamarBlue detection reagent was added to each well, incubating at 37° C. for 4-6 hours, the fluorescence signal intensity was detected on a multifunctional enzyme-linked immunosorbent assay (ELISA) instrument with an excitation wavelength of 560 nm and an emission wavelength of 590 nm.
The cell viability of the blank control was set to 100%, and the cell viability (%) of the experimental well was calculated by the following formula: […]
The detected average cell viability was takedn as the y-axis, a sigmoid dose response (Variable Slope) method (GraphPad Prism software, GraphPad Software, San Diego, California) was used for nonlinear regression to obtain the inhibitory effect curves of cell proliferation, and the corresponding IC50 values (half maximum inhibition concentration) were calculated. […]

[3] = Time 0 h, linker-toxin to Cathepsin B about 1200:1, 37° C.

CC[C@@]1(O)C(=O)OCc2c1cc1n(c2=O)Cc2c-1nc1cc(F)c(C)c3c1c2[C@@H](NC(=O)COCNC(=O)CNC(=O)[C@H](Cc1ccccc1)NC(=O)CNC(=O)CNC(=O)CCCCCN1C(=O)C=CC1=O)CC3 [Deruxtecan (MC-GGFG-Dxd), reference compound] ({Hexanoyl(6-maleimido)}-GGFG[NHCH2OCH2CO]-Exatecan)
Cathepsin B enzyme digestion kinetics (Cathepsin B enzyme; [3]): 0%
Cathepsin B enzyme digestion kinetics (Cathepsin B enzyme; Time 1 h): 0%
Cathepsin B enzyme digestion kinetics (Cathepsin B enzyme; Time 2 h): 0%
Cathepsin B enzyme digestion kinetics (Cathepsin B enzyme; Time 4 h): 0%
Cathepsin B enzyme digestion kinetics (Cathepsin B enzyme; Time 20 h): 0%
Cathepsin B enzyme digestion kinetics (Cathepsin B enzyme; Time 20 h, listed as MC-GGFG-Dxd): does not release any enzyme digestion products

CC[C@@]1(O)C(=O)OCc2c1cc1n(c2=O)Cc2c-1nc1cc(F)c(C)c3c1c2[C@@H](NC(=O)OCc1ccc(NC(=O)[C@H](C)NC(=O)[C@@H](NC(=O)[C@H](CCC(=O)O)NC(=O)CCCCCN2C(=O)C=CC2=O)C(C)C)cc1)CC3 [LD-27]
HIC retention time [1]: 15.107 min

CC[C@@]1(O)C(=O)OCc2c1cc1n(c2=O)Cc2c-1nc1cc(F)c(C)c3c1c2[C@@H](NC(=O)OCc1ccc(NC(=O)[C@H](C)NC(=O)[C@@H](NC(=O)[C@H](CCC(=O)NCC[N+](C)(C)CCCS(=O)(=O)[O-])NC(=O)CCOCCOCCOCCOCCNC(=O)CCN2C(=O)C=CC2=O)C(C)C)cc1)CC3 [LD-37]
HIC retention time [1]: 14.069 min
SEC % [2]: 97.50%

CC[C@@]1(O)C(=O)OCc2c1cc1n(c2=O)Cc2c-1nc1cc(F)c(C)c3c1c2[C@@H](NC(=O)OCc1ccc(NC(=O)[C@H](CCC(=O)NCC[N+](C)(C)CCCS(=O)(=O)[O-])NC(=O)[C@@H](NC(=O)CCOCCOCCOCCOCCNC(=O)CCN2C(=O)C=CC2=O)C(C)C)cc1)CC3 [LD-38]
HIC retention time [1]: 13.57 min
Cathepsin B enzyme digestion kinetics (Cathepsin B enzyme; [3]): 0%
Cathepsin B enzyme digestion kinetics (Cathepsin B enzyme; Time 1 h): 20%
Cathepsin B enzyme digestion kinetics (Cathepsin B enzyme; Time 2 h): 77%
Cathepsin B enzyme digestion kinetics (Cathepsin B enzyme; Time 20 h): 100%

CC[C@H](C)[C@@H]([C@@H](CC(=O)N1CCC[C@H]1[C@H](OC)[C@@H](C)C(=O)N[C@H](C)[C@@H](O)c1ccccc1)OC)N(C)C(=O)[C@@H](NC(=O)[C@H](C(C)C)N(C)C(=O)OCc1ccc(NC(=O)[C@H](CCC(=O)NCC[N+](C)(C)CCCS(=O)(=O)[O-])NC(=O)[C@@H](NC(=O)CCCCCN2C(=O)C=CC2=O)C(C)C)cc1)C(C)C [LD-57] ({Hexanoyl(6-maleimido)}-VE(X1)[PABC][NMeV]V[Dil][Dolaproine]-X2)
HIC retention time [1]: 16.066 min
SEC % [2]: 99.34%

CC[C@@]1(O)C(=O)OCc2c1cc1n(c2=O)Cc2c-1nc1cc(F)c(C)c3c1c2[C@@H](NC(=O)OCc1ccc(NC(=O)[C@H](C)NC(=O)[C@@H](NC(=O)CCOCCOCCOCCOCCNC(=O)CCN2C(=O)C=CC2=O)C(C)C)cc1CN(C)C(=O)CCC[N+](C)(C)CCCS(=O)(=O)[O-])CC3 [LD-65]
HIC retention time [1]: 13.46 min
HIC retention time ([1]; listed as 7): 13.455 min
SEC % [2]: 99.28%
Cathepsin B enzyme digestion kinetics (Cathepsin B enzyme; [3]): 0%
Cathepsin B enzyme digestion kinetics (Cathepsin B enzyme; Time 1 h): 0%
Cathepsin B enzyme digestion kinetics (Cathepsin B enzyme; Time 2 h): 1%
Cathepsin B enzyme digestion kinetics (Cathepsin B enzyme; Time 4 h): 1%

CC[C@@]1(O)C(=O)OCc2c1cc1n(c2=O)Cc2c-1nc1cc(F)c(C)c3c1c2[C@@H](NC(=O)OCc1ccc(NC(=O)CNC(=O)[C@H](Cc2ccccc2)NC(=O)CNC(=O)CNC(=O)CCCCCN2C(=O)C=CC2=O)cc1CN(C)C(=O)COP(=O)([O-])OCC[N+](C)(C)C)CC3 [LD-72]
HIC retention time [1]: 13.126 min
SEC % [2]: 98.90%

CC[C@@]1(O)C(=O)OCc2c1cc1n(c2=O)Cc2c-1nc1cc(F)c(C)c3c1c2[C@@H](NC(=O)OCc1ccc(NC(=O)[C@H](C)NC(=O)[C@@H](NC(=O)CCOCCOCCOCCOCCNC(=O)CCN2C(=O)C=CC2=O)C(C)C)cc1CN(C)C(=O)CCOCCOCCOCCOCCOCCOCCOCCOCCOC)CC3 [LD-73]
HIC retention time [1]: 16.002 min
SEC % [2]: 99.53%

CC[C@@]1(O)C(=O)OCc2c1cc1n(c2=O)Cc2c-1nc1cc(F)c(C)c3c1c2[C@@H](NC(=O)OCc1ccc(NC(=O)[C@H](C)NC(=O)[C@@H](NC(=O)CCCCCN2C(=O)C=CC2=O)C(C)C)cc1CN(C)C(=O)CN(C)C(=O)CN(C)C(=O)CN(C)C(=O)CN(C)C(=O)CN(C)C(=O)CN(C)C(=O)CN(C)C(=O)CN(C)C(=O)CN(C)C(=O)CN(C)C(C)=O)CC3 [LD-74, reference compound]
HIC retention time [1]: 13.583 min
SEC % [2]: 99.53%

CC[C@@]1(O)C(=O)OCc2c1cc1n(c2=O)Cc2c-1nc1cc(F)c(C)c3c1c2[C@@H](NC(=O)OCc1ccc(NC(=O)[C@H](CCC(=O)N(CCCS(=O)(=O)[O-])CC[N+](C)(C)C)NC(=O)[C@@H](NC(=O)CCOCCOCCOCCOCCNC(=O)CCN2C(=O)C=CC2=O)C(C)C)cc1)CC3 [LD-89]
HIC retention time [1]: 13.392 min
SEC % [2]: 98.00%

CC[C@@]1(O)C(=O)OCc2c1cc1n(c2=O)Cc2c-1nc1cc(F)c(C)c3c1c2[C@@H](NC(=O)OCc1ccc(NC(=O)[C@H](C)NC(=O)[C@@H](NC(=O)CCCCCN(C)CCN2C(=O)C=CC2=O)C(C)C)cc1CN(C)C(=O)CCC[N+](C)(C)CCCS(=O)(=O)[O-])CC3 [LD-98]
HIC retention time [1]: 13.121 min
SEC % [2]: 98.79%

CC[C@H](C)[C@@H]([C@@H](CC(=O)N1CCC[C@H]1[C@H](OC)[C@@H](C)C(=O)N[C@H](C)[C@@H](O)c1ccccc1)OC)N(C)C(=O)[C@@H](NC(=O)[C@@H](NC)C(C)C)C(C)C [MMAE, monomethyl auristatin E] (H-[NMeV]V[Dil][Dolaproine]-X2)
IC50 (MC38-hClaudin18.2 cells): 2.04 nM

— patent US20260232825A1, “LINKER-DRUG MOLECULE AND ANTIBODY DRUG CONJUGATE, PREPARATION METHOD THEREFOR AND USE THEREOF” (SHANGHAI ESCUGEN BIOTECHNOLOGY CO., LTD., priority 2023, published 2026)
